What was measured:
[1] = target: GlcNAc-RNase B (67) (bovine) (UniProt P61823)
[2] = target: Bovine RNase B (bovine) (UniProt P61823)
Sequence of Bovine RNase B (bovine) (P61823 27-150): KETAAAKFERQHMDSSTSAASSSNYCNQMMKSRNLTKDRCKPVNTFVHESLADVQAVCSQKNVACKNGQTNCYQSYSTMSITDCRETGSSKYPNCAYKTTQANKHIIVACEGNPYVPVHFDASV

Sequence of GlcNAc-RNase B (67) (bovine) (P61823 27-150): as above

B1: Wild-type Endo-A (enzyme)
chain: STYNGPLSSHWFPEELAQWEPDSDPDAPFNRSHVPLEPGRVANRVNANADKDAHLVSLSALNRHTSGVPSQGAPVFYENTFSYWHYTDLMVYWAGSAGEGIIVPPSADVIDASHRNGVPILGNVFFPPTVYGGQLEWLEQMLEQEEDGSFPLADKLLEVADYYGFDGWFINQETEGADEGTAEAMQAFLVYLQEQKPEGMHIMWYDSMIDTGAIAWQNHLTDRNKMYLQNGSTRVADSMFLNFWWRDQRQSNELAQALGRSPYDLYAGVDVEARGTSTPVQWEGLFPEGEKAHTSLGLYRPDWAFQSSETMEAFYEKELQFWVGSTGNPAETDGQSNWPGMAHWFPAKSTATSVPFVTHFNTGSGAQFSAEGKTVSEQEWNNRSLQDVLPTWRWIQHGGDLEATFSWEEAFEGGSSLQWHGSLAEGEHAQIELYQTELPISEGTSLTWTFKSEHGNDLNVGFRLDGEEDFRYVEGEQRESINGWTQWTLPLDAFAGQTITGLAFAAEGNETGLAEFYIGQLAVGADSEKPAAPNVNVRQYDPDPSGIQLVWEKQSNVHHYRVYKETKHGKELIGTSAGDRIYLEGLVEESKQNDVRLHIEALSETFVPSDARMIDIKSGSF
B1 was tested, and the transglycosylation of oxazoline 8 to GlcNAc-RNase B, yield of glycoprotein 68 [1] was 71% and the deglycosylation of RNase B, isolated yield of GlcNAc-RNase B 67 [2] was 86%.

Reference: US20240218342A1, “SITE-SPECIFIC GLYCAN REMODELING OF LYSOSOMAL ENZYMES AND APPLICATIONS THEREOF” (priority 2021, published 2024)
